The record followed here is patent US20160250307A1 (IMMATICS BIOTECHNOLOGIES, published 2016).

Bounds are passed on as bounds.

For one test, the target named is HLA-A*02 (human). In words: UV-ligand exchange, anti-b2m ELISA; grade: exchange yield >=75%.
Turning to FLFNTENKLLL (also called IDI1-001), the peptide exchange yield is not below 75%.

For KLAEIVKQV (also called MAPKAPK5-001), the peptide exchange yield was not below 75%.

Molecule GVMAGDIYSV (also called ADF-012) displayed a peptide exchange yield not below 75%.

Regarding SLLGGNIRL (also called ACSL3-001), the peptide exchange yield is not below 75%.

As for GLIDTETAMKAV (also called HSD11B1-001), the peptide exchange yield is not below 75%.

The molecule VLTEFTREV (also called IPO9-001) came in with a peptide exchange yield not below 75%.

Molecule VMAPFTMTI (also called APOB-003) yielded a peptide exchange yield not below 75%.

For LLYGHTVTV (also called SLC35B2-001), the peptide exchange yield is not below 75%.

Regarding ALVDTLKFV (also called APOB-002), the peptide exchange yield was not below 75%.

In turn, YLITSVELL (also called ACSL4-001) came in with a peptide exchange yield not below 75%.

Take ALLKVNQEL (also called SAMM-001): the peptide exchange yield was not below 75%.

For the molecule SLLEEFDFHV (also called USO-001), the peptide exchange yield is not below 75%.

Molecule ALVEQGFTV (also called APOB-001) gave a peptide exchange yield not below 75%.

With FLAELAYDL (also called GPC3-001), the peptide exchange yield is not below 75%.

Turning to ALADLTGTVV (also called NCST-001), the peptide exchange yield is not below 75%.

In the case of KLQDFSDQL (also called APOB-004), the peptide exchange yield is not below 75%.

The next test concerns the target HLA-A*02 (human). Kind of test: UV-ligand exchange, anti-b2m ELISA; grade: exchange yield >=20%. In general terms: ELISA stands for enzyme-linked immunosorbent assay.
AMPPPPPQGV: the peptide exchange yield is 20 to 50%.

In the case of RLMSALTQV, the peptide exchange yield was in the range of 20 to 50%.

FLYPEKDEPT showed a peptide exchange yield of 20 to 50%.

In turn, FTIPKLYQL yielded a peptide exchange yield of 20 to 50%.

For the molecule RVPPPPQSV, the peptide exchange yield lay in the range of 20 to 50%.

FLDTPIAKV: the peptide exchange yield was in the range of 20 to 50%.

Take RIPAYFVTV: the peptide exchange yield lay in the range of 20 to 50%.

Molecule TMAKESSIIGV had a peptide exchange yield of 20 to 50%.

FVLPLLGLHEA gave a peptide exchange yield of 20 to 50%.

Consider KLLAATVLLL, for which the peptide exchange yield fell in the range of 20 to 50%.

As to LTDITKGV, the peptide exchange yield was 20 to 50%.

As for GLAEELVRA, the peptide exchange yield was 20 to 50%.

Molecule TLITDGMRSV showed a peptide exchange yield of 20 to 50%.

As to KIAGTNAEV, the peptide exchange yield is 20 to 50%.

For the molecule FLASESLIKQI, the peptide exchange yield fell in the range of 20 to 50%.

As to YLYNNEEQVGL, the peptide exchange yield is 20 to 50%.

TLAQQPTAV returned a peptide exchange yield of 20 to 50%.

A further test addresses HLA-A*02 (human). In words: UV-ligand exchange, anti-b2m ELISA; grade: exchange yield 50%-75%.
In turn, KLSPTVVGL (also called AXIN2-001) displayed a peptide exchange yield of 50 to 75%.

With KMDPVAYRV (also called QAR-001), the peptide exchange yield lay in the range of 50 to 75%.

Molecule SLLEKELESV (also called DRG2-001) had a peptide exchange yield of 50 to 75%.

Turning to KLLEEATISV (also called DYM-001), the peptide exchange yield lay in the range of 50 to 75%.

In turn, AVLGPLGLQEV (also called THT-001) showed a peptide exchange yield of 50 to 75%.

Consider KLQAGTVFV (also called ALDH1L1-001), for which the peptide exchange yield lay in the range of 50 to 75%.

Molecule GVYDGEEHSV (also called MAGEB2-001) yielded a peptide exchange yield of 50 to 75%.

Turning to ALCEENMRGV (also called EEF2-001), the peptide exchange yield was 50 to 75%.

Molecule SLSQELVGV (also called ZNF318-001) displayed a peptide exchange yield of 50 to 75%.

For the molecule VLADFGARV (also called C1QTNF3-001), the peptide exchange yield was in the range of 50 to 75%.

For another test, the target named is HLA-A*02 (human). In words: UV-ligand exchange, anti-b2m ELISA; grade: exchange yield >=75%. The source holds these as a separate data set.
With FLFNTENKLLL (also called IDI1-001), the peptide exchange yield is not below 75%.

As for KLAEIVKQV (also called MAPKAPK5-001), the peptide exchange yield was not below 75%.

Molecule GVMAGDIYSV (also called ADF-012) yielded a peptide exchange yield not below 75%.

As to SLIDQFFGV (also called USP14-001), the peptide exchange yield is not below 75%.

SLLGGNIRL (also called ACSL3-001) came in with a peptide exchange yield not below 75%.

Turning to GLIDTETAMKAV (also called HSD11B1-001), the peptide exchange yield was not below 75%.

Consider VLTEFTREV (also called IPO9-001), for which the peptide exchange yield is not below 75%.

Consider VMAPFTMTI (also called APOB-003), for which the peptide exchange yield is not below 75%.

As to LLYGHTVTV (also called SLC35B2-001), the peptide exchange yield was not below 75%.

ALVDTLKFV (also called APOB-002) had a peptide exchange yield not below 75%.

YLITSVELL (also called ACSL4-001): the peptide exchange yield is not below 75%.

ALLKVNQEL (also called SAMM-001) displayed a peptide exchange yield not below 75%.

Take SLLEEFDFHV (also called USO-001): the peptide exchange yield was not below 75%.

ALVEQGFTV (also called APOB-001) registered a peptide exchange yield not below 75%.

The molecule FLAELAYDL (also called GPC3-001) yielded a peptide exchange yield not below 75%.

ALADLTGTVV (also called NCST-001) came in with a peptide exchange yield not below 75%.

In the case of ALASVIKEL (also called IFT81-001), the peptide exchange yield is not below 75%.

For KLQDFSDQL (also called APOB-004), the peptide exchange yield is not below 75%.

Another test addresses HLA-A*02 (human). In words: UV-ligand exchange, anti-b2m ELISA; grade: exchange yield >=50%.
KLSPTVVGL (also called AXIN2-001) registered a peptide exchange yield of 50 to 75%.

Turning to KMDPVAYRV (also called QAR-001), the peptide exchange yield was in the range of 50 to 75%.

With SLLEKELESV (also called DRG2-001), the peptide exchange yield lay within 50 to 75%.

KLLEEATISV (also called DYM-001): the peptide exchange yield is 50 to 75%.

AVLGPLGLQEV (also called THT-001) showed a peptide exchange yield of 50 to 75%.

Molecule KLQAGTVFV (also called ALDH1L1-001) had a peptide exchange yield of 50 to 75%.

For the molecule ALCEENMRGV (also called EEF2-001), the peptide exchange yield lay in the range of 50 to 75%.

On to SLSQELVGV (also called ZNF318-001), for which the peptide exchange yield was in the range of 50 to 75%.

The molecule ALASVIKEL (also called IFT81-001) returned a peptide exchange yield of 50 to 75%.
